Data reported in PMC7283332 (2020).

T1: Fc-wtNKG2D (human, UniProt P26718 78-216)
T1 chain: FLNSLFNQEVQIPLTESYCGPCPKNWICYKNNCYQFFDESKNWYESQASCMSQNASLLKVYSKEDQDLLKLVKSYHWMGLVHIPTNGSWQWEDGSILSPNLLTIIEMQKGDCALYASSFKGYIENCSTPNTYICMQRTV

B1: Fc-iNKG2D.YA (Fc fusion)
chain: FLNSLFNQEVQIPLTESYCGPCPKNWICYKNNCYQFFDESKNWYESQASCMSQNASLLKVYSKEDQDLLKLVKSAHWMGLVHIPTNGSWQWEDGSILSPNLLTIIEMQKGDCALYASSFKGYIENCSTPNTYICMQRTV
modifications: biotinylated only in the ELISA on coated ligand-Fc proteins

Legend:
Assay in all cases: BLI
[1] = biological target: B1
[2] = biological target: T1, Fc-wtNKG2D
[3] = biological target: ULBP2.S3 (U2S3), monomeric α1α2 domain variant (human, UniProt Q9BZM5)

Row | Kd [1] [nM] | Kd [2] [nM] | Kd [3] [nM] | Binder
1 | 3600 | 8 | – | ULBP2.R81W, monomeric α1α2 domain (domain or fragment) DPHSLCYDITVIPKFRPGPRWCAVQGQVDEKTFLHYDCGNKTVTPVSPLGKKLNVTTAWKAQNPVLREVVDILTEQLWDIQLENYTPKEPLTLQARMSCEQKAEGHSSGSWQFSFDGQIFLLFDSEKRMWTTVHPGARKMKEKWENDKVVAMSFHYFSMGDCIGWLEDFLMGMDSTLEPSAGAP
2 | – | 350 | – | ULBP2 α1α2 domain, C-terminal 6×-His (domain or fragment) DPHSLCYDITVIPKFRPGPRWCAVQGQVDEKTFLHYDCGNKTVTPVSPLGKKLNVTTAWKAQNPVLREVVDILTEQLRDIQLENYTPKEPLTLQARMSCEQKAEGHSSGSWQFSFDGQIFLLFDSEKRMWTTVHPGARKMKEKWENDKVVAMSFHYFSMGDCIGWLEDFLMGMDSTLEPSAGAP
3 | – | – | 28 | B1
